Assays:
[1] = target: T1, 인간 DLL4 단백질 세포외 도메인 (R&D Systems Cat: 1506-D4/CF) (human, UniProt Q9NR61 27-529); assay: competition ELISA: antibody (2 pM-35 nM) premixed with DLL4 antigen (800 ng/ml), added to coated hNotch-1-hFc; bound DLL4 detected with an HRP anti-His reagent
T1 construct: extracellular domain; Bought protein; also called hDLL4-His; human DLL4; not shown: His tag (hDLL4-His)

[2] = target: T1, 인간 DLL4 단백질 세포외 도메인 (R&D Systems Cat: …); assay: SPR (BIACORE T200), DLL4 coated on the chip, antibody injected

T1 sequence (Q9NR61 27-529): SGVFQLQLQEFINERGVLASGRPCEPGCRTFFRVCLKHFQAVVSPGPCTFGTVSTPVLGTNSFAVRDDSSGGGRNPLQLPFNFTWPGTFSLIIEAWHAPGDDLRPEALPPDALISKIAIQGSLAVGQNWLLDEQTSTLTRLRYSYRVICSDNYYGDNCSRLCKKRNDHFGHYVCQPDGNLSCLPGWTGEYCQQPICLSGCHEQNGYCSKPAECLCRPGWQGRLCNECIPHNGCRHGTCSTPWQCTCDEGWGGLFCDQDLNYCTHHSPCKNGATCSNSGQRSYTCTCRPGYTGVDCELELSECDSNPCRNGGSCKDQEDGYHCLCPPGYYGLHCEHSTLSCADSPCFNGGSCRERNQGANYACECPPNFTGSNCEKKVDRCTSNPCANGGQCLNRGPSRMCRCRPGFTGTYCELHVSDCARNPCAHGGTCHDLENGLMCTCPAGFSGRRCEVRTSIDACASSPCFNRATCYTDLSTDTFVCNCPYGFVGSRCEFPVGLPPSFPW

B1: 인간 단일클론항체 mh2F (항 DLL4 항체) (antibody, V domains shown)
VH: QVQLVQSGAEVKKPGASVKVSCKASGYTFTSYYLHWVRQAPGQGLEWMGIINPSGGSTSFAQKFQGRVTMTRDTSTSTVYMELSSLRSEDTAVYYCARDSAGGTLDVWGQGTMITVSS
VL: SYELTQPPSVSVAPGKTARITCGGNKIGNKGVHWYQQKPGQAPVLVIYYDKDRPSGIPERFSGSNSGNTATLTISRVEAGDEADYYCQVWDRSTVIFGGGTKLTVLG
notes: Isolated from a human scFv phage library; In ELISA it was detected with an HRP-conjugated anti-Fab reagent; also called anti-DLL4 antibody
IC50 [1]: 1.03 nM
Kd [2]: 5.27 nM

Source: KR20140085790A (dated 2014)
